In patent US20260193307A1 (ASKGENE PHARMA, published 2026):

B1: K1-69C7 scFv-Fc (JR8.153.1) (Fc fusion)
chain: DIQMTQSPSSLSASVGDRVTITCRASQDISNYLNWYQQKPGKAPKLLIYGASSLQSGVPSRFSGSGSGTDFTLTISSLQPEDFATYYCQQTYTIPLTFGQGTKVEIKAGGGGSGGGGSGGGGSQVQLVQSGAEVKKPGSSVKVSCKASGGTFTSYAINWVRQAPGQGLEWMGRIIPIIGRVDYAQKFQGRVTITADESTSTAYMELSSLRSEDTAVYYCARGFVGGFDVWGQGTLVTVSS
notes: Purified scFv-Fc homodimer; also called JR8.153.1 K1-69C7; not shown: Fc fragment (human Fc domain)
B2: K1-69H5 scFv-Fc (JR8.144.3) (Fc fusion)
chain: EIVLTQSPGTLSLSPGERATLSCRASQSVSSSYLAWYQQKPGQAPRLLIYGASSRATGIPDRFSGSGSGTDFTLTISRLEPEDFAVYYCQQYSRAPGTFGQGTKVEIKAGGGGSGGGGSGGGGSQVQLVQSGAEVKKPGSSVKVSCKASGGTFSSYGIHWVRQAPGQGLEWMGGIIPILGTANYAQKFQGRVTITADESTSTAYMELSSLRSEDTAVYYCAVPFFDVWGQGTLVTVSS
notes: Purified scFv-Fc homodimer; also called JR8.144.3 K1-69H5; not shown: Fc fragment (human Fc domain)
B3: K3-15F7 scFv-Fc (JR8.144.4) (Fc fusion)
chain: DIQMTQSPSSLSASVGDRVTITCRASQDIRRYLNWYQQKPGKAPKLLIYAASSLQSGVPSRFSGSGSGTDFTLTISSLQPEDFATYYCQQAYSIPLTFGQGTKVEIKGGGGSGGGGSGGGGSEVQLVESGGGLVKPGGSLRLSCAASGFTFSNAWMSWVRQAPGKGLEWVGRIKSKTAGGTTDYAAPVKGRFTISRDDSKNTLYLQMNSLKTEDTAVYYCARDWWYLDFDYWGQGTLVTVSS
notes: Purified scFv-Fc homodimer; also called JR8.144.4 K3-15F7; not shown: Fc fragment (human Fc domain)
B4: K3-30B12 scFv-Fc (JR8.156.6) (Fc fusion)
chain: DIQMTQSPSSLSASVGDRVTITCRASQDISTYLNWYQQKPGKAPKLLIYDASSLQSGVPSRFSGSGSGTDFTLTISSLQPEDFATYYCQQSYSAPLTFGQGTKVEIKAGGGGSGGGGSGGGGSEVQLLESGGGLVQPGGSLRLSCAASGFTFSTYAMSWVRQAPGKGLEWVSTISGSGVRTYYADSVKGRFTISRDNSKNTLYLQMNSLRAEDTAVYYCARETYIYGPFDVWGQGTLVTVSS
notes: Purified scFv-Fc homodimer; also called JR8.156.6 K3-30B12; not shown: Fc fragment (human Fc domain)

biological target: T1, IL-2 (UniProt P60568 21-153); test: cell-based or functional assay
T1 sequence (P60568 21-153 limits assumed): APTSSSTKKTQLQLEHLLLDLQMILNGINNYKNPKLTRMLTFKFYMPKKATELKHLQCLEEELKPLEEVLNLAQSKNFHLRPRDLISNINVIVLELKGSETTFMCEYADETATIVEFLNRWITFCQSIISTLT

Row | IC50, CTLL2 cell-based IL-2 activity inhibition assay (50 nM IL-2) [nM] | Binder
1 | 7 | B1
2 | 11.3 | B2

biological target: T1, IL-2; test: ForteBio (BLI), purified scFv-Fc to IL-2

Row | Kd [nM] | Response | Binder
3 | < 0.001 | 3 | B3
4 | 0.117 | 3.5 | B1
5 | < 0.001 | 3 | B2
6 | 0.605 | 3.1 | B4
